Laboratory results as given in patent publication US20250361274A1, “PEPTIDE AND PEPTIDE-CONTAINING AGENT” (PEPTIDREAM INC., priority 2022, published 2025).
Numbered stars: 1 amine (or outer) side, 2 acyl side, 3 side chain; on linkers, the order of the positions; unused ones are H or OH. Bridge positions count the residues as written; N and C are the ends. Square brackets hold non-standard residues; d marks the D form. Ends that are not written are not given here. KCOpipzaa = N6-(4-(carboxymethyl)piperazine-1-carbonyl)-L-lysine, O=C(NCCCC[C@H](N[*:1])C(=O)[*:2])N1CCN(CC(=O)[*:3])CC1; 3Pal(6-Ph) = N[C@@H](Cc1ccc(-c2ccccc2)nc1)C(=O)O; Phe(4-COOH) = N[C@@H](Cc1ccc(C(=O)O)cc1)C(=O)O; NMePhe(3-Cl) = CN[C@@H](Cc1cccc(Cl)c1)C(=O)O; NMePhe(4-Me) = CN[C@@H](Cc1ccc(C)cc1)C(=O)O; Bip = N[C@@H](Cc1ccc(-c2ccccc2)cc1)C(=O)O; Phe(4-Cl) = N[C@@H](Cc1ccc(Cl)cc1)C(=O)O; Phe(4-F) = N[C@@H](Cc1ccc(F)cc1)C(=O)O; Hyp = O=C(O)[C@@H]1C[C@@H](O)CN1; NMeF = CN[C@@H](Cc1ccccc1)C(=O)O; 4Pal = N[C@@H](Cc1ccncc1)C(=O)O; Cha = N[C@@H](CC1CCCCC1)C(=O)O; MeY = Methyl-L-tyrosine; Abu = CC[C@H](N)C(=O)O; βAla = NCCC(=O)O

Columns and labels:
[1] = target: T1, BMP7 (Homo sapiens, UniProt P18075); experiment: BMP7 signal transduction inhibitory activity: SMAD1 phosphorylation by BMP7 stimulus, A549 cells; format: cell-based; conditions: for aLISA BMP7: inhibition of SMAD1 phosphorylation by BMP7 stimulus, A549 cells
T1 sequence (P18075 293-431): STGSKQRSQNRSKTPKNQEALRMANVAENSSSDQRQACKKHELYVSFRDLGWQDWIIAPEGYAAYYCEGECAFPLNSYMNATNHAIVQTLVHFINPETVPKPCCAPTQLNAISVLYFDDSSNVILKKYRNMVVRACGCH
How it was run: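 A549 cells were stimulated with 10 nM BMP7, and peptide inhibition of signalling was measured as SMAD1 phosphorylation. Peptides were tested at three concentrations, in sets ranging from 1–100 nM to 100–1,000 nM, or as eight-point 1/3 dilution series starting at 100 nM or 1,000 nM.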

[2] = target: T2, BMP4 (Homo sapiens, UniProt P12644); experiment: BMP4 signal transduction inhibitory activity: SMAD1 phosphorylation by BMP4 stimulus, AlphaLISA SureFire, A549 cells; format: cell-based; conditions: for aLISA BMP4: inhibition of SMAD1 phosphorylation by BMP4 stimulus, A549 cells
T2 sequence (P12644 293-408): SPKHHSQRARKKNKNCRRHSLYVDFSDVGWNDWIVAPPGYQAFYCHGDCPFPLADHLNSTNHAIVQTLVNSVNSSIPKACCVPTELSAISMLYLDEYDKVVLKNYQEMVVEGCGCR

[3] = BMP7 10 nM stimulus, peptide conc. in assay 10, 30, 90 nM
[4] = BMP4 0.2 nM stimulus, peptide conc. in assay 2, 20, 200 nM
[5] = peptides of Synthesis 1, classes E, F, ND
[6] = peptides of Synthesis 1, classes D-F, ND
[7] = AlphaLISA, class by peptide concentration zone

384 (FG[NMePhe(3-Cl)]G[Bip]GDD[Cha]A[NMeF]LHCG-NH2; not fully specified) [compound 384]
aLISA BMP7 (10 nM) % inh [1, 3]: E (showed 30% or more of inhibitory activity in 10 nM-addition zone) | aLISA BMP4 (0.2 nM) % inh [2, 4]: B (showed less than 30% of inhibitory activity in 20 nM-addition zone and showed 30% or more of inhibitory activity in 200 nM-addition zone)

339 (FG[NMeF]G[Bip]GDD[Cha][Abu][NMeF]LHCG-NH2; not fully specified (N-terminus, bridges)) [compound 339]
aLISA BMP7 (10 nM) % inh ([1]; SMAD1 phosphorylation, BMP7 10 nM, peptide conc. in assay 1, 10, 100 nM): D (showed less than 30% of inhibitory activity in 10 nM-addition zone and showed 30% or more of inhibitory activity in 100 nM-addition zone) | aLISA BMP4 (0.2 nM) % inh ([2]; SMAD1 phosphorylation, BMP4 0.2 nM, peptide conc. in assay 0.2, 2, 20 nM): ND (the inhibitory activity was less than 30% at the maximum concentration evaluated)

131 ({CH2CO}-ERVYDDR[Bip]PYV[Bip]Y[Phe(4-COOH)][Phe(4-COOH)]SCG-NH2; thioether N-17; not fully specified) [compound 131]
aLISA BMP7 [1, 5]: F (showed less than 50% of inhibitory activity in 10 nM-addition zone and showed 50% or more of inhibitory activity in 100 nM-addition zone) | aLISA BMP4 [2, 6]: D (showed 50% or more of inhibitory activity in 0.2 nM-addition zone)

285 (E[KCOpipzaa]V[Phe(4-COOH)]V[KCOpipzaa]R[3Pal(6-Ph)][KCOpipzaa]Y[Hyp][Bip][4Pal][Phe(4-COOH)][Phe(4-COOH)]SC[βAla]) [compound 285]
aLIZA BMP7 (10 nM) % inh ([1]; BMP7 10 nM stimulus, peptide conc. in assay 100, 300, 1000 nM, class symbols): H (showed less than 30% of inhibitory activity in 300 nM-addition zone and showed 30% or more of inhibitory activity in 1,000 nM-addition zone) | aLIZA BMP4 (0.2 nM) % inh ([2]; BMP4 0.2 nM stimulus, peptide conc. in assay 0.02, 0.2, 2 nM, class symbols): C (showed less than 30% of inhibitory activity in 0.2 nM-addition zone and showed 30% or more of inhibitory activity in 2 nM-addition zone)

387 (FG[MeY]G[Bip]GDD[Cha]A[NMeF]LHCG-NH2; not fully specified) [compound 387]
aLISA BMP7 (10 nM) % inh [1, 3]: F (showed less than 30% of inhibitory activity in 10 nM-addition zone and showed 30% or more of inhibitory activity in 30 nM-addition zone) | aLISA BMP4 (0.2 nM) % inh [2, 4]: A (showed less than 30% of inhibitory activity in 2 nM-peptide-addition zone and showed 30% or more of inhibitory activity in 20 nM-addition zone)

65 (Ac-E[KCOpipzaa]VYVDR[Bip]PYP[Bip][Phe(4-F)][Phe(4-COOH)][Phe(4-COOH)]SCG-NH2; thioether (positions not given here); not fully specified (bridges)) [compound 65]
aLISA BMP7 [1, 7]: C (showed less than 50% of inhibitory activity in 10 nM-addition zone and showed 50% or more of inhibitory activity in 100 nM-addition zone) | aLISA BMP4 [2, 7]: A (showed an inhibitory activity of 50% or more in a zone to which the peptide was added to in an amount of 0.2 nM)

373 ([Phe(4-Cl)]G[NMeF]G[Bip]GDD[Cha]A[NMeF]LHCG-NH2; not fully specified) [compound 373]
aLISA BMP7 (10 nM) % inh [1, 3]: F (showed less than 30% of inhibitory activity in 10 nM-addition zone and showed 30% or more of inhibitory activity in 30 nM-addition zone) | aLISA BMP4 (0.2 nM) % inh [2, 4]: A (showed less than 30% of inhibitory activity in 2 nM-peptide-addition zone and showed 30% or more of inhibitory activity in 20 nM-addition zone)

398 ([Phe(4-F)]G[NMePhe(4-Me)]G[Bip]GDD[Cha]A[NMePhe(4-Me)]LHCG-NH2; not fully specified) [compound 398]
aLISA BMP7 (10 nM) % inh ([1]; BMP7 10 nM stimulus, peptide conc. in assay 1, 10, 100 nM): D (showed less than 30% of inhibitory activity in 10 nM-addition zone and showed 30% or more of inhibitory activity in 100 nM-addition zone) | aLISA BMP4 (0.2 nM) % inh ([2]; BMP4 0.2 nM stimulus, peptide conc. in assay 0.2, 2, 20 nM): A (showed less than 30% of inhibitory activity in 2 nM-peptide-addition zone and showed 30% or more of inhibitory activity in 20 nM-addition zone)

132 ({CH2CO}-ERVYVSR[Bip]PYV[Bip]Y[Phe(4-COOH)][Phe(4-COOH)]SCG-NH2; thioether N-17; not fully specified) [compound 132]
aLISA BMP7 [1, 5]: ND (the inhibitory activity was less than 30% at the maximum concentration evaluated) | aLISA BMP4 [2, 6]: E (showed less than 50% of inhibitory activity in 0.2 nM-addition zone and showed 50% or more of inhibitory activity in 2 nM-addition zone)
